According to patent publication US20230348600A1 (INHIBRX, published 2023):

Assays:
[1] = biological target: T1, human CD28 (full-length, cell surface) (human, UniProt P10747 19-220); test: flow cytometry, titration on Jurkat cells (5T4-/PDL1-/CD28+)
T1 construct: On HEK293FS cells transiently transfected with full-length human CD28, or endogenous on Jurkat cells and primary human T cells; also called hCD28; cluster of differentiation 28

[2] = biological target: T1, human CD28 (full-length, cell surface); test: flow cytometry, titration of sdAb-hFc on HEK293FS cells transiently transfected with full-length human CD28; Alexa Fluor 647 anti-human IgG
Protocol: HEK293FS transiently transfected with full-length human CD28 or cynomolgus CD28 were used as CD28-positive cells. Untransfected HEK293FS cells were used as CD28-negative cells. Cells were seeded in 96-well round-bottom plates at 3×10³ cells/well in FACS buffer. The exemplary generated sdAb-hFcs were titrated onto cells and assay plates were incubated for 30 minutes at 4° C. […] Assay plates were incubated for 30 minutes at 4° C. and then cells were washed two times with FACS buffer and resuspended in FACS buffer for analysis using an Intellicyt iQue®.

[3] = biological target: T1, human CD28 (full-length, cell surface); test: flow cytometry, titration on Jurkat cells (endogenous CD28)
[4] = biological target: T1, human CD28 (full-length, cell surface); test: flow cytometry on Jurkat cells and primary T cells enriched from PBMCs (endogenous CD28)

B1: cx8370 (PDL1xCD28 bispecific construct) (bispecific antibody)
chain: EVQLLESGGGEVQPGGSLRLSCAASGGIFAIKPISWYRQAPGKQREWVSTTTSSGATNYAESVKGRFTISRDNAKNTLYLQMSSLRAEDTAVYYCNVFEYWGQGTLVTVKPGGSGGSEVQLVQSGGGLVQTGGSLRLSCAASGRMFSNYAMGWFRQAPGKEREFVAAINYRRDSADYADSVKGRFTISRDNAKNTVYLEMNSLKPEDTAIYYCGFTYAGWASSRRDDYNYWGQGTQVTVKPPAPGGPSVFLFPPKPKDTLMISRTPEVTCVVVDVSHEDPEVKFNWYVDGVEVHNAKTKPREEQYNSTYRVVSVLTVLHQDWLNGKEYKCKVSNKALPAPIEKTISKAKGQPREPQVYTLPPSRDELTKNQVSLTCLVKGFYPSDIAVEWESNGQPENNYKTTPPVLDSDGSFFLYSKLTVDKSRWQQGNVFSCSVMHEALHNHYTQKSLSLSPGK
[1]
  binding result: no binding

B2: 1G7 CD28 sdAb formatted with human IgG1 Fc (sdAb-hFc) (Fc fusion)
chain: EVQLVQSGGALVQAGGSLRLSCVAPRTIGLISLMGWYRQAPGKQRELVATIIASGRTNYAESVKDRFTISRDNAENKVYLQVNSLKPEDTAVYYCRVNAETAPWSRRGFWGQGTQVTVKPPAPELLGGPSVFLFPPKPKDTLMISRTPEVTCVVVDVSHEDPEVKFNWYVDGVEVHNAKTKPREEQYNSTYRVVSVLTVLHQDWLNGKEYKCKVSNKALPAPIEKTISKAKGQPREPQVYTLPPSRDELTKNQVSLTCLVKGFYPSDIAVEWESNGQPENNYKTTPPVLDSDGSFFLYSKLTVDKSRWQQGNVFSCSVMHEALHNHYTQKSLSLSPGK
notes: also called 1G7 sdAb-IgG1
[2]
  binding result: binds

B3: cx984 (CD28 monospecific construct) (Fc fusion)
chain: EVQLVQSGGGLVQTGGSLRLSCAASGRMFSNYAMGWFRQAPGKEREFVAAINYRRDSADYADSVKGRFTISRDNAKNTVYLEMNSLKPEDTAIYYCGFTYAGWASSRRDDYNYWGQGTQVTVKPPAPGGPSVFLFPPKPKDTLMISRTPEVTCVVVDVSHEDPEVKFNWYVDGVEVHNAKTKPREEQYNSTYRVVSVLTVLHQDWLNGKEYKCKVSNKALPAPIEKTISKAKGQPREPQVYTLPPSRDELTKNQVSLTCLVKGFYPSDIAVEWESNGQPENNYKTTPPVLDSDGSFFLYSKLTVDKSRWQQGNVFSCSVMHEALHNHYTQKSLSLSPGK
notes: Homodimer of two identical chains; also called monospecific, bivalent CD28 sdAb cx984
[3]
  binding result: binds

B4: 1C9-xELL (1C9 CD28 sdAb formatted with variant human IgG1 Fc xELL) (Fc fusion)
chain: B3 chain
notes: also called 1C9 sdAb-xELL
[4]
  binding result: binds

B5: 2F11 CD28 sdAb formatted with human IgG1 Fc (sdAb-hFc) (Fc fusion)
chain: QVQLQQSGGGLVQAGGSLRLSCVASGISFNVVDMDWHRQAPGKERELVAGITRGGATYYADSVKGRFTISRDNAKNSAYLQLANLKPEDTAVYYCNARWPSRYQNYWGQGTQVTVKPPAPELLGGPSVFLFPPKPKDTLMISRTPEVTCVVVDVSHEDPEVKFNWYVDGVEVHNAKTKPREEQYNSTYRVVSVLTVLHQDWLNGKEYKCKVSNKALPAPIEKTISKAKGQPREPQVYTLPPSRDELTKNQVSLTCLVKGFYPSDIAVEWESNGQPENNYKTTPPVLDSDGSFFLYSKLTVDKSRWQQGNVFSCSVMHEALHNHYTQKSLSLSPGK
notes: Bivalent sdAb-IgG1 homodimer; I treated them as the same clone; also called 2F11 sdAb-IgG1
[2]
  binding result: binds

B6: cx694 (PDL1xCD28 bispecific construct) (bispecific antibody)
chain: EVQLLESGGGEVQPGGSLRLSCAASGGIFAIKPISWYRQAPGKQREWVSTTTSSGATNYAESVKGRFTISRDNAKNTLYLQMSSLRAEDTAVYYCNVFEYWGQGTLVTVKPGGSGGGGSEVQLVQSGGGLVQTGGSLRLSCAASGRMFSNYAMGWFRQAPGKEREFVAAINYRRDSADYADSVKGRFTISRDNAKNTVYLEMNSLKPEDTAIYYCGFTYAGWASSRRDDYNYWGQGTQVTVKPPAPGGPSVFLFPPKPKDTLMISRTPEVTCVVVDVSHEDPEVKFNWYVDGVEVHNAKTKPREEQYNSTYRVVSVLTVLHQDWLNGKEYKCKVSNKALPAPIEKTISKAKGQPREPQVYTLPPSRDELTKNQVSLTCLVKGFYPSDIAVEWESNGQPENNYKTTPPVLDSDGSFFLYSKLTVDKSRWQQGNVFSCSVMHEALHNHYTQKSLSLSPGK
notes: also called PDL1xCD28 bispecific protein
[1]
  binding result: no binding

B7: 1C9 CD28 sdAb formatted with human IgG1 Fc (sdAb-hFc) (Fc fusion)
chain: EVQLVQSGGGLVQTGGSLRLSCAASGRMFSNYAMGWFRQAPGKEREFVAAINYRRDSADYADSVKGRFTISRDNAKNTVYLEMNSLKPEDTAIYYCGFTYAGWASSRRDDYNYWGQGTQVTVKPPAPELLGGPSVFLFPPKPKDTLMISRTPEVTCVVVDVSHEDPEVKFNWYVDGVEVHNAKTKPREEQYNSTYRVVSVLTVLHQDWLNGKEYKCKVSNKALPAPIEKTISKAKGQPREPQVYTLPPSRDELTKNQVSLTCLVKGFYPSDIAVEWESNGQPENNYKTTPPVLDSDGSFFLYSKLTVDKSRWQQGNVFSCSVMHEALHNHYTQKSLSLSPGK
notes: Bivalent sdAb-IgG1 homodimer; also called 1C9-IgG1; 1C9 sdAb-IgG1
[2]
  binding result: binds
